Measured values taken from patent US20210380703A1.
Substitutions are numbered along the chain they refer to.

B1: 366_G04 (antibody, V domains shown)
VH: EVQLLESGGGLVQPGGSLRLSCAASGFTFSSYSMNWVRQAPGKGLEWVSGINYNSGYTSYADSVKGRFTISRDNSKNTLYLQMNSLRAEDTAVYYCARSANWHDTALDYWGQGTLVTVSS
VL: DIQMTQSPSSLSASVGDRVTITCRASQSIITYLNWYQQKPGKAPKLLIYAATSRASGVPSRFSGSGSGTDFTLTISSLQPEDFATYYCQQSDDTPLTFGGGTKVEIK
B2: 367_B07 (antibody, V domains shown)
VH: B1 VH with S31D, S49A, S59G, A106H
VL: B1 VL with T31S, L33V, R54L, D92Y, D93N, T94L
B3: 367_B03 (antibody, V domains shown)
VH: B1 VH with S33G, S49A, S55G, T58K
VL: B1 VL with I30L, R54L, D92Y, D93N, T94L
B4: 366_H08 (antibody, V domains shown)
VH: B1 VH with S31D, S33G, S49A, G50S, A106H
VL: B1 VL with I30L, T31S, L33V, A55H, D92Y, D93N, T94N
B5: 366_H07 (antibody, V domains shown)
VH: B1 VH with S33G, N35H, S55G
VL: B1 VL with T31S, L33V, L47V, A51V, D92Y, D93E, T94N
B6: 366_G05 (antibody, V domains shown)
VH: B1 VH with S30D, S33G, G50N, S55G
VL: B1 VL with T31S, L33V, L47V, D92Y, D93E, T94N
B7: 367_B08 (antibody, V domains shown)
VH: B1 VH with S31D, S33G, S55G, T58K, S59G
VL: B1 VL with I30L, L47V, D92Y, T94N
B8: 367_A04 (antibody, V domains shown)
VH: B1 VH with G50N, T58K
VL: B1 VL with T94S
B9: 366_H06 (antibody, V domains shown)
VH: B1 VH with S33G, G50S, S55G, S59G
VL: B1 VL with I30L, T31S, A51T, D92Y
B10: 367_A05 (antibody, V domains shown)
VH: B1 VH with S31D, S33G, G50S, S55G, T58K, S59G
VL: B1 VL with I30L, T31S, L47V, A51V, D92Y, T94S
B11: 374_F10 (antibody, V domains shown)
VH: B1 VH with S55G
VL: B1 VL with I30L, T31S, L47V, D92Y, T94N
B12: 374_E02 (antibody, V domains shown)
VH: B1 VH with S55G
VL: B1 VL with I30L, T31S, R54L, D92Y, T94L
B13: 374_E05 (antibody, V domains shown)
VH: B1 VH with S49A, S55G
VL: B1 VL with I30L, T31S, Y32F, L33V, L47V, D92Y, D93N, T94L
B14: 374_E11 (antibody, V domains shown)
VH: B1 VH with S33G, G50N, S55G
VL: B1 VL with I30V, L47V, D92Y, T94S
B15: 374_F02 (antibody, V domains shown)
VH: B1 VH with S30D, S49A, G50N
VL: B1 VL with I30V, T31S, T52S, R54L, A55Q, D92Y, D93E, T94L
B16: 374_F01 (antibody, V domains shown)
VH: B1 VH with S30D, G50N, S55G, S59G
VL: B1 VL with I30L, T31S, L33V, L47V, A55H, D92Y, D93E, T94N
B17: 374_F04 (antibody, V domains shown)
VH: B1 VH with S33G, T58K
VL: B1 VL with I30L, L33V, D92Y, D93N, T94S
B18: 374_E08 (antibody, V domains shown)
VH: B1 VH with S33G, S49A, S55G, T58K
VL: B1 VL with I30L, T31S, A55H, D92Y, T94L

target: Human Fc (human); assay: ELISA; negative control

| optical density [OD] | Binder |
| --- | --- |
| 0.31 | B1 |
| 0.236 | B2 |
| 0.318 | B3 |
| 0.417 | B4 |
| 0.285 | B5 |
| 0.28 | B6 |
| 0.37 | B7 |
| 0.267 | B8 |
| 0.285 | B9 |
| 0.269 | B10 |

target: human Fc (human); assay: ELISA; negative control

| optical density [OD] | Binder |
| --- | --- |
| 0.524 | B11 |
| 0.527 | B12 |
| 0.244 | B13 |
| 0.186 | B14 |
| 0.169 | B15 |
| 0.165 | B16 |
| 0.163 | B17 |
| 0.251 | B18 |
